Assay results: patent publication US20260184815A1 (published 2026)
Numbering of substitutions follows the chain as printed.

B1: M28-C03 (Fab, V domains shown)
VH: EVQLLESGGGLVQPGGSLRLSCAASGFTFSYYQMGWVRQAPGKGLEWVSSIYPSGGMTDYADSVKGRFTISRDNSKNTLYLQMNSLRAEDTAVYYCTRGSPWGDDAFDIWGQGTMVTVSS
VL: DIQMTQSPSSLSASVGDRVTITCRASQSINFYLNWYQQKPGKAPKLLIYVASSLESGVPSRFSGSASGTEFTLTISSLQPEDFATYYCLQSYSAPYTFGQGTKVEIT
notes: HC as printed runs into CH1
B2: M29-C07 (Fab, V domains shown)
VH: EVQLLESGGGLVQPGGSLRLSCAASGFTFSGYDMMWVRQAPGKGLEWVSVISSSGGNTAYADSVKGRFTISRDNSKNTLYLQMNSLRAEDTAVYYCARESSGLYYFDYWGQGTLVTVSS
VL: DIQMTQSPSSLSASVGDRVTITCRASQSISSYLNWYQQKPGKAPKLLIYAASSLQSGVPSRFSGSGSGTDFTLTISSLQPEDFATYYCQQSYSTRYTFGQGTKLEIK
notes: HC as printed runs into CH1
B3: M29-G08 (Fab, V domains shown)
VH: EVQLLESGGGLVQPGGSLRLSCAASGFTFSYYHMWWVRQAPGKGLEWVSGISPSGGFTFYADSVKGRFTISRDNSKNTLYLQMNSLRAEDTAVYYCARDYYYDSSGYSPLGYWGQGTLVTVSS
VL: DIQMTQSPATLSASPGETVTLSCRASQNIGNDVAWYRQRPGQAPRLLIHHASTRAYGIPARLRGSGSATEFTLTITSLEPEDFAIYYCQQFYDWPAHTFALGTRLEIKR
notes: HC as printed runs into CH1
B4: M76-G02 (Fab, V domains shown)
VH: EVQLLESGGGLVQPGGSLRLSCAASGFTFSLYAMWWVRQAPGKGLEWVSYISSSGGFTSYADSVKGRFTISRDNSKNTLYLQMNSLRAEDTAVYYCARYRVGVAATDYWGQGTLVTVSS
VL: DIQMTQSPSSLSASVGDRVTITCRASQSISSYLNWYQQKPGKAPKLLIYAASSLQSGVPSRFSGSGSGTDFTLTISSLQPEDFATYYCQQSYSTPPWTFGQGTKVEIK
notes: HC as printed runs into CH1
B5: M28-F07 (Fab, V domains shown)
VH: EVQLLESGGGLVQPGGSLRLSCAASGFTFSDYTMYWVRQAPGKGLEWVSSIVPSGGHTLYADSVKGRFTISRDNSKNTLYLQMNSLRAEDTAVYYCAKDHLSSWYGGFFDYWGQGTLVTVSS
VL: DIQMTQSPSSVSASVGDRVTITCRASQGISSWLAWYQQKPGKAPKLLIYATSGLQSGVPSRFSGSGSGTDFTLTISSLQPEDFATYYCQQAKSFPLTFGGGTRVEIK
notes: HC as printed runs into CH1
B6: M27-H10 (Fab, V domains shown)
VH: EVQLLESGGGLVQPGGSLRLSCAASGFTFSAYQMAWVRQAPGKGLEWVSVIYSSGGYTDYADSVKGRFTISRDNSKNTLYLQMNSLRAEDTAVYYCARHNWNDGAFDIWGQGTMVTVSS
VL: DIQMTQSPSSLSASVGDRVTITCRASQSISNYLNWYQQKPGKAPKFLIYAASSLQSGVPSRFSGSGSGTDFTLSISSLQPEDFATYYCQQSYSTPQTFGQGTKVEMK
notes: HC as printed runs into CH1
B7: M28-F01 (Fab, V domains shown)
VH: EVQLLESGGGLVQPGGSLRLSCAASGFTFSVYLMHWVRQAPGKGLEWVSGISPSGGYTQYADSVKGRFTISRDNSKNTLYLQMNSLRAEDTAVYYCARPGGLDAFDIWGQGTMVTVSS
VL: B6 VL with S30N, N31T, F46V, Y49H, S53T, Q55E, S74T, Q96P, M106I
notes: HC as printed runs into CH1
B8: M28-E01 (Fab, V domains shown)
VH: EVQLLESGGGLVQPGGSLRLSCAASGFTFSSYPMGWVRQAPGKGLEWVSRISSSGGMTIYADSVKGRFTISRDNSKNTLYLQMNSLRAEDTAVYYCARDDWNVGMDVWGQGTTVTVSS
VL: B6 VL with N31S, F46L, R61K, F71Y, S74T, S91T, S93T, Q96W, M106I
notes: HC as printed runs into CH1
B9: M76-G06 (Fab, V domains shown)
VH: EVQLLESGGGLVQPGGSLRLSCAASGFTFSGYIMHWVRQAPGKGLEWVSWIYPSGGWTEYADSVKGRFTISRDNSKNTLYLQMNSLRAEDTAVYYCARDAPGVGAIDYWGQGTLVTVSS
VL: B6 VL with G16R, N31T, K42E, F46L, I48V, Y49F, Q96H, T102A, M106I
notes: HC as printed runs into CH1
B10: M77-C07 (Fab, V domains shown)
VH: B9 VH with G31L, H35G, W50G, W57F, E59M, D99E, A100S, P101S, G104A, I106P
VL: B6 VL with S10T, S28N, N31S, F46L, S74T, Y87S, Q96R, M106I
notes: HC as printed runs into CH1
B11: M6-D09 (Fab, V domains shown)
VH: EVQLLESGGGLVQPGGSLRLSCAASGFTFSFYYMVWVRQAPGKGLEWVSVIYPSGGITVYADSVKGRFTISRDNSKNTLYLQMNSLRAEDTAVYYCARDKWAVMPPYYYYAMDVWGQGTTVTVSS
VL: DIQMTQSPSSLSASVGDRVTITCRASQSIRNYLNWYQQKPGKAPNLLIYAASTLQSGVPARFSGSGSGTDFTLTISSLQPEDFATYYCQQLSGYPHTFGQGTKLEIK
notes: HC as printed runs into CH1; also called M06-D09; 559A-M0006-D09
B12: M76-F02 (Fab, V domains shown)
VH: B7 VH with V31L, L33D, H35N, Y57Q, Q59M, P99Q, G100P, G101M, L102I, D103S
VL: DIQMTQSPSSLSASVGDRVTITCRASQTIDNYLHWYQQKPGKAPKVLIHDASSLQSGVPPRFSGSGSGTDFTLTISSLQPEDFATYYCQQSYDTPQYTFGQGTKLEIK
notes: HC as printed runs into CH1
B13: M28-A01 (Fab, V domains shown)
VH: EVQLLESGGGLVQPGGSLRLSCAASGFTFSWYAMHWVRQAPGKGLEWVSGIYSSGGYTKYADSVKGRFTISRDNSKNTLYLQMNSLRAEDTAVYYCARDLSNGDDVFDIWGQGTMVTVSS
VL: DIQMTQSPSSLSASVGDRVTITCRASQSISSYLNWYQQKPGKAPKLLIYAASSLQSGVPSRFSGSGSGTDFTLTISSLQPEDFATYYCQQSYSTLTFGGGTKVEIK
notes: HC as printed runs into CH1
B14: M28-D12 (Fab, V domains shown)
VH: EVQLLESGGGLVQPGGSLRLSCAASGFTFSWYTMHWVRQAPGKGLEWVSVIYPSGGPTSYADSVKGRFTISRDNSKNTLYLQMNSLRAEDTATYYCARDGSGSYLGFDYWGQGTLVTVSS
VL: DIQMTQSPSSLSASVGDRVTITCRASQSIATYLNWYQQKPGRAPKLLIYAASSLQSGVPSRFVGGGSGSGTHFTLTISSLQPEDFATYYCQQSYSTRETFGQGTKVEIK
notes: HC as printed runs into CH1
B15: M29-G10 (Fab, V domains shown)
VH: EVQLLESGGGLVQPGGSLRLSCAASGFTFSFYKMIWVRQAPGKGLEWVSSISSSGGSTQYADSVKGRFTISRDNSKNTLYLQMNSLRAEDTAVYYCARDRVDLGYLDYWGQGTLVTVSS
VL: DIQMTQSPSSLSSSVGDSATITCRASQSISIYLNWYQQKPGKAPKILIYGASQLESGVPSRFSGSGSGTDFTLTVSGLQPEDFATYWCQQSYNVPYTFGQGTKLEIK
notes: HC as printed runs into CH1
B16: M28-E11 (Fab, V domains shown)
VH: EVQLLESGGGLVQPGGSLRLSCAASGFTFSLYDMTWVRQAPGKGLEWVSGISSSGGVTIYADSVKGRFTISRDNSKNTLYLQMNSLRAEDTAVYYCARTYYYDSSGYADAFDIWGQGTMVTVSS
VL: DIQMTQSPSSVSASVGDRVTINCRASQDISNWLAWYQQKPGKAPNLLIYAASSLQTGAPSRFSGSGSGTDFTLTISSLQPEDFGTYVCQQSYSLPWTFGLGTKVEVR
notes: HC as printed runs into CH1
B17: M74-A07 (Fab, V domains shown)
VH: EVQLLESGGGLVQPGGSLRLSCAASGFTFSQYLMMWVRQAPGKGLEWVSSIYPSGGYTSYADSVKGRFTISRDNSKNTLYLQMNSLRAEDTAVYYCARVSTAVADNDYWGQGTLVTVSS
VL: DIQMTQSPSSLSASVRDRVTITCRTSQNINTYLNWYYQAPGRAPKLLIFGVSSLHRGVSSRFSGSGDGTEFTLTISSLQPEDIGTYFCQQSYSSPWTFGQGTKVEIK
notes: HC as printed runs into CH1
B18: M77-H04 (Fab, V domains shown)
VH: EVQLLESGGGLVQPGGSLRLSCAASGFTFSYYTMIWVRQAPGKGLEWVSGIRSSGGGTRYADSVKGRFTISRDNSKNTLYLQMNSLRAEDTAVYYCAKDGSRYSYGSIYYYYGMDAWGQGTTVTVSS
VL: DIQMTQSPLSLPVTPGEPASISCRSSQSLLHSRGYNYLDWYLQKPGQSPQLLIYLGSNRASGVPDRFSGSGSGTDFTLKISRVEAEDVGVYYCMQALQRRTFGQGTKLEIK
notes: HC as printed runs into CH1
B19: M76-H02 (Fab, V domains shown)
VH: EVQLLESGGGLVQPGGSLRLSCAASGFTFSMYWMQWVRQAPGKGLEWVSYIYPSGGPTKYADSVKGRFTISRDNSKNTLYLQMNSLRAEDTAVYYCARPSGSYGDAFDIWGQGTMVTVSS
VL: DIQMTQSPSSLSASEGDRVTITCRASQDISVYLNWYQMKSGKAPKLLIYGGASLQSGVPARFSGSGYGTDFTLTITDLRPEDFATYYCQQSYSLPFTFGGGTKVEIK
notes: HC as printed runs into CH1
B20: M29-D10 (Fab, V domains shown)
VH: EVQLLESGGGLVQPGGSLRLSCAASGFTFSWYPMYWVRQAPGKGLEWVSSIGSSGGPTPYADSVKGRFTISRDNSKNTLYLQMNSLRAEDTAVYYCARWADYGGSLDYWGQGTLVTVSS
VL: DIQMTQSPSSLSASVGDTVSITCRASQSITIYLNWYQHKPGKAPNLLIYGASNLHSGVPSRFSGSGSGTDFTLTISSLQPEDFATYYCQQSYDTPLTFGGGTKVEIK
notes: HC as printed runs into CH1
B21: M29-E02 (Fab, V domains shown)
VH: EVQLLESGGGLVQPGGSLRLSCAASGFTFSRYPMMWVRQAPGKGLEWVSVIYPSGGDTFYADSVKGRFTISRDNSKNTLYLQMNSLRAEDTAVYYCASGDDYLWEAAVYWGQGTLVTVSS
VL: QSVLTQPPSVSEAPRQRVTISCSGSSSNIGNNAVSWYQQLPGKAPKLLIYYDDLLPSGVSDRFSGSKSGTSASLAISGLRSEDEADYYCAAWDDSLNGFVFGTGTKVTVL
notes: HC as printed runs into CH1
B22: M7-B04 (Fab, V domains shown)
VH: EVQLLESGGGLVQPGGSLRLSCAASGFTFSWYSMVWVRQAPGKGLEWVSSISPSGGLTNYADSVKGRFTISRDNSKNTLYLQMNSLRAEDTAVYYCARHTAARPFYYYYMDVWGKGTTVTVSS
VL: QSALTQPASVSGSPGQSITISCTGTNSDVGNYNLVSWYQQHPGEAPKLLIYEVNKRPSGVSNRFSGSKSGNTASLTISGLQAEDEADYLCCSYAGNRNFYVFGAGTKVTVL
notes: HC as printed runs into CH1
B23: M7-E07 (Fab, V domains shown)
VH: EVQLLESGGGLVQPGGSLRLSCAASGFTFSWYLMIWVRQAPGKGLEWVSYIYPSGGFTYYADSVKGRFTISRDNSKNTLYLQMNSLRAEDMAVYYCARTEGPLSWGYGMDVWGQGTTVTVSS
VL: not shown
notes: HC as printed runs into CH1

molecular target: T1, human plasma kallikrein (human, UniProt P03952 20-390; P03952 391-638); test: ELISA, biotinylated pKal signal over streptavidin background
T1 construct: also called pKal; Human pKal
Excerpt: Abbreviations used: “T/B” is the ELISA signal obtained using of the “target” (biotinylated plasma kallikrein) divided by the ELISA signal of the “background” (streptavidin); both of which were coated on microtiter plates, “nd” is not determined. The symbol “q” refers to the amber suppressible stop codon (TAG), which is translated as glutamine (Q) in strains of E. coli such as the TG1 cells that were used to express the Fab fragments.

T1 sequence (P03952 20-390, chain 1 of 2): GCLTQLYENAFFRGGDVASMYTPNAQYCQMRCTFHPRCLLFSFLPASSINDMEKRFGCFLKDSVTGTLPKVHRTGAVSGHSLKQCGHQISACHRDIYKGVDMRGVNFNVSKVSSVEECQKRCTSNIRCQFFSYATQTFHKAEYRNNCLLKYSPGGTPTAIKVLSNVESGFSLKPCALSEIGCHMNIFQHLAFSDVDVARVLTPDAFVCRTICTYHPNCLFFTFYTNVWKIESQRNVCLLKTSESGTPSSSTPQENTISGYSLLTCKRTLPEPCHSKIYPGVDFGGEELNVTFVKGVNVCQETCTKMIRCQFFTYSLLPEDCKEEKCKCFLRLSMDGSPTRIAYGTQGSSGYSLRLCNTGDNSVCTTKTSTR
T1 sequence (P03952 391-638, chain 2 of 2): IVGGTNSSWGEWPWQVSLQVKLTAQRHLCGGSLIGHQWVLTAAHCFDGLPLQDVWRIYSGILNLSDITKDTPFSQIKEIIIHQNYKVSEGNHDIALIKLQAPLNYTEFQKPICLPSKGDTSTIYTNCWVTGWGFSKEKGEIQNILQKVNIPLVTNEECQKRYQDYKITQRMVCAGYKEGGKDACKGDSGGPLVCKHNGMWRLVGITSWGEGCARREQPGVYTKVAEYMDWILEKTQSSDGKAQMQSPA

First: B1
Second: B2
The “ELISA (T/B)” value of the first is lower: 2.2 T/B for the first, 5.2 T/B for the second.

Compared with B3, B4 is lower in “ELISA (T/B)” value: 40.4 T/B for the first, 10.3 T/B for the second.

Compared with B5, B6 is lower in “ELISA (T/B)” value: 33 T/B for the first, 12.4 T/B for the second.

Going from B7 to B8, the “ELISA (T/B)” value rises from 1.5 T/B to 41 T/B.

Compared with B9, B10 is higher in “ELISA (T/B)” value: 11.8 T/B for the first, 16.1 T/B for the second.

Compared with B11, B12 is lower in “ELISA (T/B)” value: 39.9 T/B for the first, 6.4 T/B for the second.

Compared with B13, B14 is higher in “ELISA (T/B)” value: 19 T/B for the first, 41.6 T/B for the second.

First: B15
Second: B16
The “ELISA (T/B)” value of the first is lower: 16.4 T/B for the first, 29.3 T/B for the second.

Compared with B17, B18 is lower in “ELISA (T/B)” value: 8.6 T/B for the first, 7.6 T/B for the second.

Going from B19 to B20, the “ELISA (T/B)” value rises from 13.4 T/B to 23.6 T/B.

First: B21
Second: B22
The “ELISA (T/B)” value of the first is lower: 2 T/B for the first, 4.1 T/B for the second.

With B23 the “ELISA (T/B)” value was 45.7 T/B.
